According to patent US20250382376A1 (FUDAN UNIVERSITY, published 2025):
Changes are numbered by the printed parent chain.

T1: cynomolgus monkey CD73-ECD (cynomolgus monkey, UniProt A0A2K5V5U7 27-549)
T1 construct: also called cynomolgus CD73-ECD
T1 sequence: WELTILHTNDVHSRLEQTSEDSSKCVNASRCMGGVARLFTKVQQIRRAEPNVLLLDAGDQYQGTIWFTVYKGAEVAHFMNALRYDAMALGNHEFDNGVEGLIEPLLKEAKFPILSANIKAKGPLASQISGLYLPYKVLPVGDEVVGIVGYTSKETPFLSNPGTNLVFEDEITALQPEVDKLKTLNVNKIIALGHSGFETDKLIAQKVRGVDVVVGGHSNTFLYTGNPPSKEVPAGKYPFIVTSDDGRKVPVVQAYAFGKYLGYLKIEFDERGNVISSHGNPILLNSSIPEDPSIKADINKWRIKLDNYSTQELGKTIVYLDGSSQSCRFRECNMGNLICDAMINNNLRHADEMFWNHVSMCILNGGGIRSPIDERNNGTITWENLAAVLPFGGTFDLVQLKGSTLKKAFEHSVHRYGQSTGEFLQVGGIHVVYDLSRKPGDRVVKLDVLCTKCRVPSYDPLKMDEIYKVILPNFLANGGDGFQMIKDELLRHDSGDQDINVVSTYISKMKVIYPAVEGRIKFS

T2: CD73 on the surface of human cells (human, UniProt P21589 27-549)
T2 sequence (looked up): T1 sequence with T199M, A350T, I466V

T3: extracellular domain of human CD73 protein, C-terminus polyhistidine-tagged (human, UniProt P21589 27-547)
T3 construct: also the immunogen; also called CD73-ECD; human CD73-ECD
T3 sequence: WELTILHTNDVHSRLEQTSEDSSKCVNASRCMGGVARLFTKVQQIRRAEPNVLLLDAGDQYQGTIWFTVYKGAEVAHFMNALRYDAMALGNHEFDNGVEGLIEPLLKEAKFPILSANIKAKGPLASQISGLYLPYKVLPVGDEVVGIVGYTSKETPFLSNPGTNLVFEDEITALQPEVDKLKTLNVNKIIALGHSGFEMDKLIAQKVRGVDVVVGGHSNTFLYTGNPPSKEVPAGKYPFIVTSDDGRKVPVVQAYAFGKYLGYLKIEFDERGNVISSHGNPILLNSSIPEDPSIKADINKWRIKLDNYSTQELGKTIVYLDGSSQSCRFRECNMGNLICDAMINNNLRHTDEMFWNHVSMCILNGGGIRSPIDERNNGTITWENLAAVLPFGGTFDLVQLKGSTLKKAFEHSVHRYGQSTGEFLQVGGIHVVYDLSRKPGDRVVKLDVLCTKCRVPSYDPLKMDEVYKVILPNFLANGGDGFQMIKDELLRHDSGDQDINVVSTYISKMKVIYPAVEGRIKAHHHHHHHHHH

T4: human recombinant CD73 enzyme (CD73 extracellular region) (human, UniProt P21589 27-549)
T4 sequence (looked up): T1 sequence with T199M, A350T, I466V

B1: humanized antibody 3D7-HM9-FCWT (Fc fusion)
VHH: QRQLVESGGGLVQPGGSLRLSCAASGFLLDYYVIGWFRQAPGKEREGVSCISGSDRSTYYADSVKGRFTISRDNAKNTVYLQMSSLRAEDTAVYYCAADPSPVTVQAMCLPRFPVPYWGKGTLVTVSS
notes: 3D7-HM9 VH on an Fc called FCWT; not shown: FCWT Fc segment
B2: humanized antibody 3D7-HM8-FC1 (Fc fusion)
heavy: QRQLVESGGGLVQPGGSLRLSCAASGFLLDYYVIGWFRQAPGKEREGVSCISGSDRSTYYADSVKGRFTISRDNSKNTVYLQMSSLRAEDTAVYYCAADPSPVTVQAMCLPRFPVPYWGQGTLVTVSSEPKSSDKTHTCPPCPAPEFEGGPSVFLFPPKPKDTLMISRTPEVTCVVVDVSHEDPEVKFNWYVDGVEVHNAKTKPREEQYNSTYRVVSVLTVLHQDWLNGKEYKCKVSNKALPASIEKTISKAKGQPREPQVYTLPPSRDELTKNQVSLTCLVKGFYPSDIAVEWESNGQPENNYKTTPPVLDSDGSFFLYSKLTVDKSRWQQGNVFSCSVMHEALHNHYTQKSLSLSPGK
B3: humanized antibody 3D7-HM7-FC1 (Fc fusion)
heavy: B2 heavy with S84G
B4: humanized antibody 3D7-HM9-FC1 (Fc fusion)
heavy: B2 heavy with S75A, Q120K
B5: 5-E11 derived antibody 5-E11ASCS (VHH)
VHH: ALQLVESGGGLVQPGGSLRLSCEVSGFTLDYYNIGWFRQAPGKEREGVSSSSASGGSTYYADSVKGRFTISRDNAKNTVYLQMNSLKPEDTGVYYCAAYRGWHPSLDARVYDYWGQGTEVTVSS

Legend:
[1] = molecular target: T1, cynomolgus monkey CD73-ECD; test: ELISA, coated cynomolgus CD73-ECD, method of Example 3
Procedure: (§1) The CD73 protein extracellular region (CD73-ECD) was diluted to 1 μg/mL using the coating solution, and an ELISA plate was coated at 100 μL/well at 4° C. overnight. Excess antigens were washed away, and the plate was blocked with 1% BSA at room temperature for 2 hours. Then, 5-fold gradient dilutions of each monoclonal antibody were added at 100 μL/well and incubated at room temperature for 1 hour. Unbound antibodies were washed away, and an appropriate concentration of Staphylococcal protein A labeled with horseradish peroxidase was added at 100 μL/well and incubated at room temperature for 0.5 hours. Unbound secondary antibodies were washed away, and TMB color development solution was added to react for about 15 minutes. 1M HCL was added at 50 µL/well to terminate the color development reaction, and then the absorbance was measured at 450 nm and the data was analyzed.
(§2) The affinity of the humanized antibody to human and cynomolgus CD73-ECD was detected according to the ELISA determination method of Example 3.

[2] = molecular target: T2, CD73 on the surface of human cells; test: cell-based or functional assay
[3] = molecular target: T3, extracellular domain of human CD73 …; test: ELISA, coated human CD73-ECD, method of Example 3
Procedure: as §1, §2

[4] = molecular target: T2, CD73 on the surface of human cells; test: Flow cytometry on NCI-H1299 cells
Procedure: (§3) 100 μL of the test antibodies diluted from 10 μg/mL to 0.016 μg/mL in a 5-fold gradient were used as the primary antibodies, and were mixed with 1×10⁵ tumor cells suspended in 100 μL RPMI-1640 serum-free medium to make a final concentration of 5 μg/mL diluted to 0.008 μg/mL, and then incubated at 4° C. for 1 h. The cells were washed twice with PBS to remove unbound primary antibodies, and then the target cells were incubated with 200 μLPE-labeled secondary antibody at 2 μg/mL at 4° C. for 30 min. The cells were washed twice with PBS to remove unbound secondary antibodies, and finally the cells were resuspended in 200 μL PBS. The binding affinity of the test antibodies to CD73 on the surface of the corresponding cells was measured by flow cytometry.
The binding affinity of the humanized antibodies to NCI-H1299 cells was detected according to the method for determining the binding affinity of CD73 on the surface of tumor cells in Example 5.

[5] = molecular target: T3, extracellular domain of human CD73 …; test: ForteBio Octet (the filing calls it SPR), by the method of Example 2 according to the text; sheet prints 'Loading Sample ID: FDYKSD-02-His'; traces labelled 50, 25, 12.5, 6.25, 3.13
[6] = molecular target: T3, extracellular domain of human CD73 …; test: SPR as the filing names it (method of Example 2, ForteBio OCTET R2)
Procedure: Surface plasmon resonance (SPR) assay: Protein A sensor was used to immobilize the antibodies, with an immobilization height of about 1.5 nM. […] Affinity detection: equilibrium for 60 s, binding for 180 s, dissociation for 180 s, at a detection temperature of 25° C. Kinetic characterization analysis was performed using the ForteBio OCTET R2 system.
The affinity of the humanized antibody to the antigen was detected by the surface plasmon resonance (SPR) assay method in Example 2.

[7] = molecular target: T2, CD73 on the surface of human cells; test: flow cytometry on NCI-H1299 cells
[8] = molecular target: T4, human recombinant CD73 enzyme (CD73 …); test: cell-based or functional assay
[9] = molecular target: T3, extracellular domain of human CD73 …; test: ELISA, coated CD73-ECD, method of Example 3
Procedure: as §1
(§4) Based on the above mutants, 5-E11ASCS was designed and prepared, and the CD73 antigen ELISA binding affinity test was performed according to the method of Example 3.

[10] = molecular target: T2, CD73 on the surface of human cells; test: flow cytometry on SW1573 cells
Procedure: as §3

[11] = molecular target: T3, extracellular domain of human CD73 …; test: ELISA on coated human CD73-ECD (the text rounds this value to 0.018 µg/mL)
Procedure: as §1, §4

| EC50 [1] | IC50, inhibition of the catalytic function of CD73 enzyme on MDA-MB-231 cells [2] | EC50 [3] | Max MFI [4] | koff [5] | kon [5] | Kd [6] | EC50 [7] | IC50, inhibition of the catalytic function of recombinant human CD73 enzyme [8] | EC50, reversal of the AMP inhibition of human T lymphocyte proliferation [2] | EC50 [9] | EC50 [10] | EC50 [11] | Binder |
| --- | --- | --- | --- | --- | --- | --- | --- | --- | --- | --- | --- | --- | --- |
| 0.00206 µg/mL | 0.126 µg/mL | 0.00209 µg/mL |  |  |  |  |  |  |  |  |  |  | B1 |
|  |  |  | 106000 MFI | 0.000913 s⁻¹ | 779000 M⁻¹ s⁻¹ | 1.17 nM | 0.043 µg/mL | 0.0555 µg/mL |  |  |  |  | B2 |
|  |  |  | 103000 MFI | 0.00091 s⁻¹ | 702000 M⁻¹ s⁻¹ | 1.3 nM | 0.02 µg/mL | 0.0456 µg/mL |  |  |  |  | B3 |
| 0.00188 µg/mL | 0.098 µg/mL | 0.0025 µg/mL | 105000 MFI | 0.00086 s⁻¹ | 1.35e+06 M⁻¹ s⁻¹ | 0.638 nM | 0.02 µg/mL | 0.0187 µg/mL | 0.024 µg/mL |  |  |  | B4 |
|  |  |  |  |  |  |  |  |  |  | 0.018 µg/mL | 0.015 µg/mL | 0.0179 µg/mL | B5 |
